The nature of data set [1]: Kinetic assay with o-nitrophenyl β-D-galactopyranoside-6-phosphate, absorbance at 405 nm. Type of data set: biochemical. Particulars: oNPGalP6, 45° C., pH 6.5 phosphate buffer; averaged over 3 runs, except * 2 runs. On the procedure:
(§1) The kinetic activity of SsδG was assessed using ultra-violet/visible spectroscopy. Cleavage of the glycosidic bond of the nitrophenyl sugar analogue releases a chromophore (Scheme 18), either p-nitrophenol or o-nitrophenol.
(§2) The absorbance of these chromophores at 405 nm was continuously measured at regular time intervals, and the Beer-Lambert Law used to calculate the chromophore concentration at each of these time intervals.
(§3) In order to use this equation the extinction coefficient, ∈, of both p-nitrophenol and o-nitrophenol were calculated. Enzyme kinetic parameters were assessed using the initial rates method. The gradient of a plot of chromophore concentration against time gave the initial rate of reaction at a series of substrate concentrations (0.05-10 mM). Kinetic parameters were calculated by regression analysis of the kinetic data on the Michaelis-Menten Model (Fersht, A., Enzyme Structure and Mechanism, W.H. Freeman and Company, New York (1985)). The initial rate of reaction was measured. This model is valid when [substrate]>>[enzyme], which are initial rate conditions.
(§4) KM and νmax were calculated from non-linear Michaelis-Menten and linear Lineweaver-Burk plots. From these values, kcat and kcat/KM were calculated and compared.
KM=νmax/2, it is the concentration of substrate at which half the active sites are filled. Higher KM values correspond to weaker binding and lower KM values correspond to stronger binding kcat, the turnover number is the number of substrate molecules which are converted to product when the enzyme is saturated with substrate and ν (rate) is maximised. […] To allow comparison of the activity of the enzymes, ln({kcat/KM}mutant/{kcat/KM}WT) was calculated for each enzyme-substrate combination, to give overall activity relative to WT.
Substrate solutions (concentration 10 mM in 50 mM pH 6.5 phosphate buffer) were prepared. […] The enzyme stock solution (˜1 mgmL^−1) was diluted between 16- and 80-fold depending on the kinetic parameters determined*. […] Simultaneously a 96-well flat bottom microtitre plate was incubated at 45° C. in a plate reader. […] The plate containing the enzyme and substrate solutions was then incubated in the plate reader at 45° C. to allow equilibration. […] Release of p-nitrophenol/o-nitropbenol was measured by absorbance at […], with an automix of 3 s before the first read and Is between every subsequent read. The run time chosen was between 6 min and 10 min*, and readings were taken at intervals of between 6 s and 10 s*.
(§5) A graph of concentration of the released chromophore (either pNP or oNP) against time was drawn for each concentration using Microsoft Excel. […] These gradients were entered into Grafit, which calculated KM and νmax from the Michelis-Menten and Lineweaver-Burk plots. From these kcat and kcat/KM could be calculated. […]

Data set [2] in a line: Kinetic assay with p-nitrophenyl β-D-galactopyranoside, absorbance at 405 nm. Type of data set: biochemical. To be noted: pNPGal, 45° C., pH 6.5 phosphate buffer, averaged over 3 runs, except * 2 runs. On the procedure:
as §1, §2, §3, §4
KM=νmax/2, it is the concentration of substrate at which half the active sites are filled. Higher KM values correspond to weaker binding and lower KM values correspond to stronger binding kcat, the turnover number is the number of substrate molecules which are converted to product when the enzyme is saturated with substrate and ν (rate) is maximised. Given both of these considerations, binding and rate, kcat/KM is typically as a measure of the overall relative activity of the enzyme. To allow comparison of the activity of the enzymes, ln({kcat/KM}mutant/{kcat/KM}WT) was calculated for each enzyme-substrate combination, to give overall activity relative to WT.
Substrate solutions (concentration 10 mM in 50 mM pH 6.5 phosphate buffer) were prepared. Kinetic assays were conducted in a 96-well flat bottom microtitre plate. Eight substrate concentrations were chosen for the assay from the range 0.05 mM to 10 mM (prepared from 10 mM stock solution), based on previous experimental experience of the kinetics of each enzyme (default range 0.05 mM to 2.00 mM)*. The enzyme stock solution (˜1 mgmL^−1) was diluted between 16- and 80-fold depending on the kinetic parameters determined*. The enzyme solution (496 µL) was dispensed into a 1.5 mL sealed Eppendorf tube. Into eight further Eppendorf tubes a portion of each substrate solution (650 μL) was dispensed. The tubes were incubated in a Techni Dri Block at 45° C. Simultaneously a 96-well flat bottom microtitre plate was incubated at 45° C. in a plate reader. […] The plate containing the enzyme and substrate solutions was then incubated in the plate reader at 45° C. to allow equilibration. […] Release of p-nitrophenol/o-nitropbenol was measured by absorbance at […], with an automix of 3 s before the first read and Is between every subsequent read. The run time chosen was between 6 min and 10 min*, and readings were taken at intervals of between 6 s and 10 s*.
as §5

Where a name gives a salt, the structure may show the parent alone.

Data on three molecules can be found in patent publication US20090181444A1, “MODIFIED CARBOHYDRATE PROCESSING ENZYME” (priority 2002, published 2009).

In turn, `O=[N+]([O-])c1ccccc1O[C@@H]1O[C@H](COP(=O)(O)O)[C@H](O)[C@H](O)[C@H]1O` (as salt: ammonium) [Enzyme 17, o-nitrophenyl β-D-galactopyranoside 6-phosphate] displayed a melting point of 181 to 183.1 °C.

`CS(=O)(=S)OCCC(=O)O` (stereo not drawn) [Enzyme 16, 2-carboxyethyl methanethiosulfonate]: the melting point lay in the range of 44 to 46 °C.

B1: C344S: SsβG mutant C344S, side chain at position 439 —CH2CH2SCH3 (protein)
chain: MYSFPNSFRFGWSQAGFQSEMGTPGSEDPNTDWYKWVHDPENMAAGLVSGDLPENGPGYWGNYKTFHDNAQKMGLKIARLNVEWSRIFPNPLPRPQNFDESKQDVTEVEINENELKRLDEYANKDALNHYREIFKDLKSRGLYFILNMYHWPLPLWLHDPIRVRRGDFTGPSGWLSTRTVYEFARFSAYIAWKFDDLVDEYSTMNEPNVVGGLGYVGVKSGFPPGYLSFELSRRHMYNIIQAHARAYDGIKSVSKKPVGIIYANSSFQPLTDKDMEAVEMAENDNRWWFFDAIIRGEITRGNEKIVRDDLKGRLDWIGVNYYTRTVVKRTEKGYVSLGGYGHGSERNSVSLAGLPTSDFGWEFFPEGLYDVLTKYWNRYHLYMYVTENGIADDADYQRPYYLVSHVYQVHRAINSGADVRGYLHWSLADNYEWASGFSMRFGLLKVDYNTKRLYWRPSALVYREIATNGAITDEIEHLNSVPPVKPLRH
As to B1, the Michaelis constant (Km) worked out at 3590 µM in data set [1] and 475 µM in data set [2] (read-out: KM). Also, the kcat in data set [1] amounted to 8.42 s⁻¹; in data set [2], 4.16 s⁻¹.

As a reminder, the melting point is the temperature, or range, at which the solid turns liquid. As a reminder, the Km is the concentration of substrate that gives half-maximal velocity. What is called kcat is the number of substrate molecules converted per active site and unit of time at saturation.
